Experimental data from PMC2871031 (Structure (London, England : 1993), 2010).
Several values for one entry are separate records, joined by “and”; a condition that tells them apart may be missing. Equal values may be shown once.

What was measured:
[1] = molecular target: ClpA-Δ153 (N-domain-deleted form of ClpA) (E. coli) (UniProt P0ABH9)
[2] = molecular target: ClpA (wild type), ATPγS-assembled hexamer (E. coli) (UniProt P0ABH9)
[3] = molecular target: ClpA-Δ10 (linker deletion mutant, residues 145 to 154 deleted) (E. coli) (UniProt P0ABH9)
[4] = molecular target: ClpA-Δ15 (linker deletion mutant, residues 145 to 159 deleted) (E. coli) (UniProt P0ABH9)
cryo-EM structure = molecular target: the molecule itself; experiment: cryo-EM structure
[5] = molecular target: T1, ClpP peptidase (tetradecamer) (UniProt P0A6G7 15-207); experiment: cryo-EM structure
[6] = molecular target: the molecule itself; experiment: cryo-electron microscopy with 2D averaging and variance maps of side-views
[7] = molecular target: T1, ClpP peptidase (tetradecamer); experiment: as above

T1 sequence (P0A6G7 15-207): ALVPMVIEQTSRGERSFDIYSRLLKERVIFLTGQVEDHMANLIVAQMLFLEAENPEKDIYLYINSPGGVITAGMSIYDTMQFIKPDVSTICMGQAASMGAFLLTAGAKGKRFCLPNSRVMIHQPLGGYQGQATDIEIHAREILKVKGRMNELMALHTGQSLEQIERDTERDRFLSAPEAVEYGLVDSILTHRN

GFP-SsrA
Km of GFP-SsrA degradation, 37 °C (μM protein monomer) [1]: 1
Km of GFP-SsrA degradation, 37 °C (μM protein monomer) [2]: 1.7
Km of GFP-SsrA degradation, 37 °C (μM protein monomer) [3]: 1.7
Km of GFP-SsrA degradation, 37 °C (μM protein monomer) [4]: 1.5

α-casein (natural protein)
Km of α-casein degradation, 37 °C (μM protein monomer) [2]: 0.2
Km of α-casein degradation, 37 °C (μM protein monomer) [4]: 0.35

B1: ClpA (wild type), ATPγS-assembled hexamer (enzyme, E. coli, UniProt P0ABH9 1-758, looked up)
chain: MLNQELELSLNMAFARAREHRHEFMTVEHLLLALLSNPSAREALEACSVDLVALRQELEAFIEQTTPVLPASEEERDTQPTLSFQRVLQRAVFHVQSSGRNEVTGANVLVAIFSEQESQAAYLLRKHEVSRLDVVNFISHGTRKDEPTQSSDPGSQPNSEEQAGGEERMENFTTNLNQLARVGGIDPLIGREKELERAIQVLCRRRKNNPLLVGESGVGKTAIAEGLAWRIVQGDVPEVMADCTIYSLDIGSLLAGTKYRGDFEKRFKALLKQLEQDTNSILFIDEIHTIIGAGAASGGQVDAANLIKPLLSSGKIRVIGSTTYQEFSNIFEKDRALARRFQKIDITEPSIEETVQIINGLKPKYEAHHDVRYTAKAVRAAVELAVKYINDRHLPDKAIDVIDEAGARARLMPVSKRKKTVNVADIESVVARIARIPEKSVSQSDRDTLKNLGDRLKMLVFGQDKAIEALTEAIKMARAGLGHEHKPVGSFLFAGPTGVGKTEVTVQLSKALGIELLRFDMSEYMERHTVSRLIGAPPGYVGFDQGGLLTDAVIKHPHAVLLLDEIEKAHPDVFNILLQVMDNGTLTDNNGRKADFRNVVLVMTTNAGVRETERKSIGLIHQDNSTDAMEEIKKIFTPEFRNRLDNIIWFDHLSTDVIHQVVDKFIVELQVQLDQKGVSLEVSQEARNWLAEKGYDRAMGARPMARVIQDNLKKPLANELLFGSLVDGGQVTVALDKEKNELTYGFQSAQKHKAEAAH
stoichiometry N (cryo-EM structure): 6 subunits
stoichiometry N [5]: 1 ClpA hexamers per ClpP tetradecamer

B2: ClpA-Δ15 (linker deletion mutant, residues 145 to 159 deleted) (enzyme, E. coli, UniProt P0ABH9 1-758, looked up)
chain: MLNQELELSLNMAFARAREHRHEFMTVEHLLLALLSNPSAREALEACSVDLVALRQELEAFIEQTTPVLPASEEERDTQPTLSFQRVLQRAVFHVQSSGRNEVTGANVLVAIFSEQESQAAYLLRKHEVSRLDVVNFISHGTRKEEQAGGEERMENFTTNLNQLARVGGIDPLIGREKELERAIQVLCRRRKNNPLLVGESGVGKTAIAEGLAWRIVQGDVPEVMADCTIYSLDIGSLLAGTKYRGDFEKRFKALLKQLEQDTNSILFIDEIHTIIGAGAASGGQVDAANLIKPLLSSGKIRVIGSTTYQEFSNIFEKDRALARRFQKIDITEPSIEETVQIINGLKPKYEAHHDVRYTAKAVRAAVELAVKYINDRHLPDKAIDVIDEAGARARLMPVSKRKKTVNVADIESVVARIARIPEKSVSQSDRDTLKNLGDRLKMLVFGQDKAIEALTEAIKMARAGLGHEHKPVGSFLFAGPTGVGKTEVTVQLSKALGIELLRFDMSEYMERHTVSRLIGAPPGYVGFDQGGLLTDAVIKHPHAVLLLDEIEKAHPDVFNILLQVMDNGTLTDNNGRKADFRNVVLVMTTNAGVRETERKSIGLIHQDNSTDAMEEIKKIFTPEFRNRLDNIIWFDHLSTDVIHQVVDKFIVELQVQLDQKGVSLEVSQEARNWLAEKGYDRAMGARPMARVIQDNLKKPLANELLFGSLVDGGQVTVALDKEKNELTYGFQSAQKHKAEAAH
stoichiometry N [6]: 6 subunits
stoichiometry N [7]: 1 ClpA hexamers per ClpP tetradecamer and 2 ClpA hexamers per ClpP tetradecamer

B3: ClpA-Δ10 (linker deletion mutant, residues 145 to 154 deleted) (enzyme, E. coli, UniProt P0ABH9 1-758, looked up)
chain: MLNQELELSLNMAFARAREHRHEFMTVEHLLLALLSNPSAREALEACSVDLVALRQELEAFIEQTTPVLPASEEERDTQPTLSFQRVLQRAVFHVQSSGRNEVTGANVLVAIFSEQESQAAYLLRKHEVSRLDVVNFISHGTRKSQPNSEEQAGGEERMENFTTNLNQLARVGGIDPLIGREKELERAIQVLCRRRKNNPLLVGESGVGKTAIAEGLAWRIVQGDVPEVMADCTIYSLDIGSLLAGTKYRGDFEKRFKALLKQLEQDTNSILFIDEIHTIIGAGAASGGQVDAANLIKPLLSSGKIRVIGSTTYQEFSNIFEKDRALARRFQKIDITEPSIEETVQIINGLKPKYEAHHDVRYTAKAVRAAVELAVKYINDRHLPDKAIDVIDEAGARARLMPVSKRKKTVNVADIESVVARIARIPEKSVSQSDRDTLKNLGDRLKMLVFGQDKAIEALTEAIKMARAGLGHEHKPVGSFLFAGPTGVGKTEVTVQLSKALGIELLRFDMSEYMERHTVSRLIGAPPGYVGFDQGGLLTDAVIKHPHAVLLLDEIEKAHPDVFNILLQVMDNGTLTDNNGRKADFRNVVLVMTTNAGVRETERKSIGLIHQDNSTDAMEEIKKIFTPEFRNRLDNIIWFDHLSTDVIHQVVDKFIVELQVQLDQKGVSLEVSQEARNWLAEKGYDRAMGARPMARVIQDNLKKPLANELLFGSLVDGGQVTVALDKEKNELTYGFQSAQKHKAEAAH
stoichiometry N [6]: 6 subunits
stoichiometry N [7]: 1 ClpA hexamers per ClpP tetradecamer and 2 ClpA hexamers per ClpP tetradecamer
